Results on 4 substances are retold here after paper doi:10.1101/2023.06.15.543498.

What is called Kd is the concentration at which binding is half-saturated. Lower therefore signals a tighter complex.

The target in the experiment is E. coli 70S ribosomes without a bound tRNA (E. coli (endogenous in strain MRE600)) (UniProt P0A7L0). In words: populations of particle classes in cryo-EM samples.

On to “EQ2-EttA (hydrolysis-deficient EQ2 mutant of E. coli EttA, Energy-dependent translation throttle A) (from UniProt P0A9W3 1-555) (enzyme)”, for which the dissociation constant Kd was found to be 62 µM.

On to “EQ2-Uup (hydrolysis-deficient EQ2 mutant of E. coli Uup) (from UniProt P43672 1-635) (enzyme)”, for which the Kd was more than 12 µM.

In turn, “EQ2-YbiT (hydrolysis-deficient EQ2 mutant of E. coli YbiT) (from UniProt P0A9U3 1-530) (enzyme)” yielded a Kd of 1.2 µM.

In turn, “EQ2-YheS (hydrolysis-deficient EQ2 mutant of E. coli YheS) (from UniProt P63389 1-637) (enzyme)” had a Kd of more than 19 µM.
